{"source": "paper PMC6533321", "about": "(EJNMMI Research, 2019)", "key": {"hSST2": {"biological_target": "T1, hSST2 (Homo sapiens, UniProt P30874)", "T1 construct": "expressed in transfected cells; donated by Prof; S. Schultz, Jena", "T1 sequence (P30874 whole entry)": "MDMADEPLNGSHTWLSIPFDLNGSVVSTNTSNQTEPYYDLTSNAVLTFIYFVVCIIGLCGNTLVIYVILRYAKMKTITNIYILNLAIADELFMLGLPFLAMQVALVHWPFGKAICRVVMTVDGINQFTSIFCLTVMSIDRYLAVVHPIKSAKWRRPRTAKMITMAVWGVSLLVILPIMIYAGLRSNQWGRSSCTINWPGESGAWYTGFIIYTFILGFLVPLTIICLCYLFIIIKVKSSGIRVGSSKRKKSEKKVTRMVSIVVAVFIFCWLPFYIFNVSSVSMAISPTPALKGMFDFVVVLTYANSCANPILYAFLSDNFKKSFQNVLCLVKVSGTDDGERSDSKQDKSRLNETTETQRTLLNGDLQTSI", "experiment": "Competition binding against [^125I-Tyr^25]LTT-SS28 in HEK293-hSST2 cell membranes", "settings": "mean ± sd, read-out: IC50 (displacement of [^125I-Tyr^25]LTT-SS28)", "protocol": "(§1) The HEK293 cell line was transfected to stably express each of the hSST2/3/5 and the resultant HEK293-hSST2/3/5 cells used for receptor affinity assessments were donated by Prof. S. Schultz (Institute of Pharmacology and Toxicology, University Hospital, Friedrich Schiller University Jena, Germany). Cells were cultured at 37 °C and 5% CO2 in Dulbecco’s modified Eagle’s medium containing 10% fetal bovine serum, 100 U/mL penicillin, […] G418, as previously described. Culture reagents were from Gibco BRL, Life Technologies, and Biochrom KG Seromed.\n(§2) [^125I-Tyr^25]LTT-SS28 served as radioligand and LTT-SS28 ([Leu^8,DTrp^22,Tyr^25]SS28) as reference compound [28, 30, 32]. Briefly, radioligand (70 μL, 50 pM corresponding to ≈ 40,000 cpm), test peptide (30 μL solution of increasing concentrations, 10^− 5–10^− 13 M), and membrane homogenates (200 μL) were added to each assay tube (total volume of 300 μL in binding solution: 50 mM HEPES pH 7.4, 1% BSA, 5.5 mM MgCl2, 35 μM bacitracin) in triplicates for each concentration point. Samples were incubated for 60 min at 22 °C in an Incubator-Orbital Shaker unit (MPM Instr. SrI). […]"}, "hSST3": {"biological_target": "T2, hSST3 (Homo sapiens, UniProt P32745)", "T2 construct": "expressed in transfected cells; donated by Prof; S. Schultz, Jena", "T2 sequence (P32745 whole entry)": "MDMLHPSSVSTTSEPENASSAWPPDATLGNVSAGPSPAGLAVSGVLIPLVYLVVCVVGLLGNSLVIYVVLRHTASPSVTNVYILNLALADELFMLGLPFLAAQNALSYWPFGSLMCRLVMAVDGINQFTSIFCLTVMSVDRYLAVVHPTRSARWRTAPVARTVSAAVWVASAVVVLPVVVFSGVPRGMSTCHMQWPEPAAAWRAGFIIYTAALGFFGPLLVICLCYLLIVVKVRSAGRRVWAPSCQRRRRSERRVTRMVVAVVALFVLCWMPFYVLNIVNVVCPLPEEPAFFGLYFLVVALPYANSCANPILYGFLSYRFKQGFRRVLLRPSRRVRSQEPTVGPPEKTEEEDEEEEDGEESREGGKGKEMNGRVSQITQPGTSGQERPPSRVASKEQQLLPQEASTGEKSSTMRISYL", "experiment": "Competition binding against [^125I-Tyr^25]LTT-SS28 in HEK293-hSST3 cell membranes", "settings": "mean ± sd, read-out: IC50 (displacement of [^125I-Tyr^25]LTT-SS28)", "protocol": "as §1\n[^125I-Tyr^25]LTT-SS28 served as radioligand and LTT-SS28 ([Leu^8,DTrp^22,Tyr^25]SS28) as reference compound [28, 30, 32]. Briefly, radioligand (70 μL, 50 pM corresponding to ≈ 40,000 cpm), test peptide (30 μL solution of increasing concentrations, 10^− 5–10^− 13 M), and membrane homogenates (200 μL) were added to each assay tube (total volume of 300 μL in binding solution: 50 mM HEPES pH 7.4, 1% BSA, 5.5 mM MgCl2, 35 μM bacitracin) in triplicates for each concentration point. Samples were incubated for 60 min at 22 °C in an Incubator-Orbital Shaker unit (MPM Instr. SrI). […] Filters were collected, and their activity measured in a γ-counter (automated well-type multisample gamma counter; NaI(Tl) 3″ crystal, Canberra Packard Auto-Gamma 5000 series instrument)."}, "hSST5": {"biological_target": "hSST5 (Homo sapiens, UniProt P35346)", "sequence (P35346 whole entry)": "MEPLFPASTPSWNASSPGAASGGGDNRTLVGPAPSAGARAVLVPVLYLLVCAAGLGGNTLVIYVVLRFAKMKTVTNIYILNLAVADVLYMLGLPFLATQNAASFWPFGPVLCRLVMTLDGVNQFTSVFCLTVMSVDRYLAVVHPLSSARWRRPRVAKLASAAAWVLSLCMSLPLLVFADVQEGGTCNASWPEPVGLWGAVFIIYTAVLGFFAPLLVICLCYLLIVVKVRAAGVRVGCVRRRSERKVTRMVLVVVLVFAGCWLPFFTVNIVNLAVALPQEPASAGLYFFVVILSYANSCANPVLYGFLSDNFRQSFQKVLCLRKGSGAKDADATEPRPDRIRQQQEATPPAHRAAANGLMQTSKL", "experiment": "Competition binding against [^125I-Tyr^25]LTT-SS28 in HEK293-hSST5 cell membranes", "settings": "mean ± sd, read-out: IC50 (displacement of [^125I-Tyr^25]LTT-SS28)", "protocol": "as §1, §2"}, "[1]": {"experiment": "Ex vivo biodistribution 60 min p.i.", "settings": "female, NMRI-nude, mouse, in vivo, iv, total radioactivity", "protocol": "(§3) A number of 2 × 10^6 MPC-mCherry cells were transplanted subcutaneously into the right shoulder of female NMRI-nude mice (8 to 10 weeks old, RjOrl:NMRI-Foxn1^nu /Foxn1^nu, Janvier Labs). […] Animals were sacrificed at 60 min post-injection (p.i.). […] The activity of the tissue samples was decay-corrected and calibrated by comparing the counts in tissue with the counts in aliquots of the injected radiotracer that had been measured in the γ-counter at the same time. The activity in the selected organs was expressed as percent-injected activity per organ (%IA) and the activity concentration in tissues and organs as standardised uptake value (SUV in [MBq activity/g tissue]/[MBq injected activity/g body weight]). Values are quoted as mean ± standard deviation for each group of animals."}, "[2]": {"system": "MPC-mCherry tumour-bearing NMRI-nude mice", "experiment": "Ex vivo biodistribution 60 min p.i.", "settings": "female, mouse, in vivo, iv, 1 h", "protocol": "as §3"}, "[3]": {"system": "patient with a well-differentiated NET", "experiment": "PET/CT in a patient with well-differentiated NET", "settings": "human, in vivo", "protocol": "Despite octreotide therapy, the disease was progressing, and in 2015, the patient was treated with peptide receptor radionuclide therapy (PRRT), administering 5 GBq of [^90Y]Y-DOTA-TOC. […] Written informed consent was obtained from the patient in accordance with paragraph 37 of the updated Declaration of Helsinki, ‘Unproven Interventions in Clinical Practice’, and in accordance with the German Medical Products Act AMG §13 2b."}, "normal liver": {"system": "normal liver", "settings": "in vivo; cited from earlier work"}}, "note": "Residues, ends and D or L forms follow the SMILES beside them."}
{"compound": "CC(C)C[C@H](NC(=O)[C@H](C)NC(=O)[C@@H]1CCCN1C(=O)[C@H](CC(N)=O)NC(=O)[C@H](CO)NC(=O)[C@H](CC(N)=O)NC(=O)[C@H](C)NC(=O)[C@@H](N)CO)C(=O)N[C@@H](C)C(=O)N1CCC[C@H]1C(=O)N[C@@H](CCCN=C(N)N)C(=O)N[C@@H](CCC(=O)O)C(=O)N[C@@H](CCCN=C(N)N)C(=O)N[C@@H](CCCCN)C(=O)N[C@@H](C)C(=O)NCC(=O)N[C@H]1CSSC[C@@H](C(=O)O)NC(=O)[C@H](CO)NC(=O)[C@H]([C@@H](C)O)NC(=O)[C@H](Cc2ccc(O)cc2)NC(=O)[C@H]([C@@H](C)O)NC(=O)[C@H](CCCCN)NC(=O)[C@@H](Cc2c[nH]c3ccccc23)NC(=O)[C@H](Cc2ccccc2)NC(=O)[C@H](Cc2ccccc2)NC(=O)[C@H](CC(N)=O)NC(=O)[C@H](CCCCN)NC1=O", "note": "[LTT-SS28] (HELM PEPTIDE1{S.A.N.S.N.P.A.L.A.P.R.E.R.K.A.G.C.K.N.F.F.[dW].K.T.Y.T.S.C}$PEPTIDE1,PEPTIDE1,17:R3-28:R3$$$V2.0)", "values": [{"measurement": "IC50", "setting": "hSST2", "value": "0.05 ± 0.01", "unit": "nM"}, {"measurement": "IC50", "setting": "hSST3", "value": "0.09 ± 0.01", "unit": "nM"}, {"measurement": "IC50", "setting": "hSST5", "value": "0.17 ± 0.03", "unit": "nM"}]}
{"compound": "C[C@@H](O)[C@@H]1NC(=O)[C@H](CCCCN)NC(=O)[C@@H](Cc2c[nH]c3ccccc23)NC(=O)[C@H](Cc2ccc(O)cc2)NC(=O)[C@@H](NC(=O)[C@@H](Cc2ccccc2)NC(=O)CN2CCN(CC(=O)O)CCN(CC(=O)O)CCN(CC(=O)O)CC2)CSSC[C@@H](C(=O)N[C@H](CO)[C@@H](C)O)NC1=O", "note": "[[^68Ga]Ga-DOTA-TOC, metal not drawn]", "values": [{"measurement": "SUV at 1 h", "setting": "[1]; Blood radioactivity concentration", "value": "0.06 ± 0.01", "unit": "SUV"}, {"measurement": "tissue uptake dose at 1 h", "setting": "[1]; Brain uptake", "value": "0.02 ± 0.01", "unit": "%ID"}, {"measurement": "tissue uptake dose at 1 h", "setting": "[1]; Femur uptake", "value": "0.04 ± 0.04", "unit": "%ID"}, {"measurement": "tissue uptake dose at 1 h", "setting": "[1]; Kidneys uptake", "value": "3.34 ± 0.87", "unit": "%ID"}, {"measurement": "tissue uptake dose at 1 h", "setting": "[1]; Liver uptake", "value": "0.45 ± 0.09", "unit": "%ID"}, {"measurement": "tissue uptake dose at 1 h", "setting": "[1]; Lung uptake", "value": "0.12 ± 0.01", "unit": "%ID"}, {"measurement": "tissue uptake dose at 1 h", "setting": "[1]; Ovaries uptake", "value": "0.02 ± 0.01", "unit": "%ID"}, {"measurement": "tissue uptake dose at 1 h", "setting": "[1]; Pancreas uptake", "value": "0.42 ± 0.06", "unit": "%ID"}, {"measurement": "tissue uptake dose at 1 h", "setting": "[1]; Stomach uptake", "value": "1.34 ± 0.39", "unit": "%ID"}, {"measurement": "tissue uptake dose at 1 h", "setting": "[1]; Thyroid uptake", "value": 0.01, "unit": "%ID"}, {"measurement": "dose excreted at 1 h", "setting": "[1]; Urine calc.", "value": "83.3 ± 3.73", "unit": "%"}, {"measurement": "Intestine uptake", "setting": "[2]", "value": "2.11±1.33", "unit": "%IA"}, {"measurement": "Tumour radioactivity concentration", "setting": "[2]", "value": "4.52 ± 1.96", "unit": "SUV"}, {"measurement": "Tumour uptake", "setting": "[2]", "value": "2.40±1.94", "unit": "%IA"}, {"measurement": "SUV, blood", "setting": "[3]", "value": 2.0, "unit": "SUV"}, {"measurement": "SUV, liver", "setting": "[3]", "value": 23.1, "unit": "SUV"}, {"measurement": "SUV, pituitary", "setting": "[3]", "value": 23.7, "unit": "SUV"}, {"measurement": "SUV, target lesion", "setting": "[3]", "value": 71.1, "unit": "SUV"}, {"measurement": "SUVmax of the liver, previous value reported", "setting": "normal liver", "value": "12.8 ± 3.6"}]}
